# Source: patent US20220249563A1 (LEGEND BIOTECH IRELAND, published 2022)
# T1: extracellular domain of human DLL3 protein (aa27-466) having an N-terminal FLAG tag (AdipoGen, AG-40B-0151) (human, UniProt Q9NYJ7 27-466)
# T1 construct: range 27-466; also called DLL3 ECD protein
# T1 sequence (looked up): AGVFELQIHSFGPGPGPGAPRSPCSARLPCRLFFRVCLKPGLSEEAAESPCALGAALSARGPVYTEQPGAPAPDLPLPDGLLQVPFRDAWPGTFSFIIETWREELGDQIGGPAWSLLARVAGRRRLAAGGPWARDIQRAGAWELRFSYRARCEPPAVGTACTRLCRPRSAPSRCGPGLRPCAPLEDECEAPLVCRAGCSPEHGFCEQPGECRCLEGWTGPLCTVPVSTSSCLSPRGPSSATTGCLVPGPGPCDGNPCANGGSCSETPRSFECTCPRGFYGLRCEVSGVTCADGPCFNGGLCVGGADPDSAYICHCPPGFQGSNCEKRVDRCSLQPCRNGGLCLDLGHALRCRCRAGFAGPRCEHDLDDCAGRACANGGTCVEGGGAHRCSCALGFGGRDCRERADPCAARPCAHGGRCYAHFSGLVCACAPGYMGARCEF
# Target: T1, extracellular domain of human DLL3 …
# Test: ELISA (protein), FACS (cells)
row,Binder,binding result
1,"AS63965 (VHH, camel sdAb; crude E. coli supernatant) VHH: QVQLVESGGGSVQAGGSLRLSCVASGYSSGSCRMGWYRQAPGKERELVSKVISDGTTVYADSVKGRFTLSQGNAKNTVYLQMSSLLPEDTAMYYCNAWCREYPGGILNNGWGQGTQVTVSS",binds
2,"AS69500 (VHH, camel sdAb; crude E. coli supernatant) VHH: QVRLVESGGGSVQAGGSLRLSCAADRYTYSSACMGWFRQAPGKEREGVASIFTGTGGSTYYADSVKGRFTISQDNAKNTVYLQMNSLKPEDTAIYYCAARAFQVGYCYLRTDVYNYWGQGTQVTVSS",binds
3,"AS75387 (VHH, camel sdAb; crude E. coli supernatant) VHH: QVHLVESGGGSVQAGGSLRLSCAASGYPYSSPCMAWFRQAPGKEREGVLVAYTGGDIQYLTDSVKGRFTISRDNAKNTVYLQMNSLKPEDTAMYYCAADLRLPRAGGCAYSYWGQGTQVTVSS",binds
4,"AS64006 (VHH, camel sdAb; crude E. coli supernatant) VHH: QVHLVESGGGSVQAGGSLRLSCEVSGYTGDTTYIGWFRQAPGKEREGVALIYTSGTSEYYADSVKGRFIISRDNAKNTVYLQMNSLKPEDTAMYYCGARSRTMMYWGQGTQVTVSS",binds
5,"AS63956 (VHH, camel sdAb; crude E. coli supernatant) VHH: QVHLVESGGGLVQAGGSLRLSCAASGFTYSNCCMRWYRQAPGKARELVSLINSSGGTYYADSVRGRFTISKDNAKNTLYLQMNSLKPEDTAMYYCAAYQAKYCSGPCAPPTDWGQGTQVTVSS",binds

# Continued, values first:
row,binding result,Binder
1,binds,"AS68355 (VHH, camel sdAb; crude E. coli supernatant) VHH: QMQLVESGGDSVQAGGSLRLSCAASGYTYSGVCMGWFRQAPGKEREGVAAIDSDGSTSYADSVKGRFTISKDNAKNTLYLQMNSLKPEDTAMYYCAAAIVGGFNAYCSGGYVLDFGAWGQGTQVTVSS"
2,binds,"AS63987 (VHH, camel sdAb; crude E. coli supernatant) VHH: QVRLVESGGGSVQAGGSLRLSCEATGYRNCMAWFRQAPGKEREGVAVIYTPSGITDYASSVKGRFTISQNNARNTQYLQMNSLKPEDTAMYYCAADRPFVCNIANMRRSSNWGRGTQVTVSS"
3,binds,"AS63937 (VHH, camel sdAb; crude E. coli supernatant) VHH: QVKLVESGGGSVQAGGSLRLSCAASGSTISSRPMAWFRQAPGKEREGVACIHTGLGRTYYADSVKGRFTISQDNAKNTVYLQVNSLKPEDTAMYYCAADSRRPCMVAAGYTYWGQGTQVTVSS"
4,binds,"AS68280 (VHH, camel sdAb; crude E. coli supernatant) VHH: QVQLVESGGGSVHPGGSLRLSCAASGSTYSSNYLGWFRQAPGKGRDWVAAISTGDGATAYADSVKGRFTISQDNAKNTVYLQMNSLKLEDSAMYYCAAARGRFIDWTKATQYDYWGQGTQVTVSS"
5,binds,"AS63993 (VHH, camel sdAb; crude E. coli supernatant) VHH: QVKLVESGGGLVQAGGSLRLSCTVSGFTFDDLVMAWFRQAPGKERQLVSLVATAGNSVYADSVKGRFTLSRDNAHSTAYLQMNGLKPEDTAMYYCAARTDSEHAFKFWGQGTQVTVSS"
6,binds,"AS75695 (VHH, camel sdAb; crude E. coli supernatant) VHH: QVRLVESGGGSVQAGGSLRLSCVASGYTVSAYCMGWFRQVLGKGRERIAFIDAGGATIYADPVKGRFTISKDNAKNTLYLQMNSLKPEDTAMYYCVADRRGRVRRCEYNAWGQGTQVTVSS"
7,binds,"AS64060 (VHH, camel sdAb; crude E. coli supernatant) VHH: QVKLVESGGGSVQAGGSLRLSCAASGSTYCTYRMSWFRQAPGKEREFVAVIDSGGSTSYADSVKGRFTISRDNAKNTVYLQMNSLKPEDTAMYYCKTDPTIGCPQTYRYNYWGQGTQVTVSS"
8,binds,"AS64071 (VHH, camel sdAb; crude E. coli supernatant) VHH: QVHLMESGGGSVQAGGSLRLSCVASGNTYRLNSMGWFRQAPGKEREGVAFIVMIRGTTYYGASVKGRFTISQDNAQTTVYLQMSSLKPEDTAMYYCAASTKDQFYVFNPIGYDSWGQGTQVTVSS"
9,binds,"AS76169 (VHH, camel sdAb; crude E. coli supernatant) VHH: QVHLMESGGGSVQAGGSLRLSCAASGYIYSSFCMGWFRQAPGKEREVVAYIRDNIMTSYTDSVKGRFTISKDNAKRTLYLQMNGLKPEDTGMYYCAVDRGGYANSCAVAARYDYWGRGTQVTVSS"
10,binds,"AS69527 (VHH, camel sdAb; crude E. coli supernatant) VHH: EVQLAESGGGSVQAGGSLRLSCVASRYTFSSTCMAWFRQAPGKEREEVAAIYTDDGSTWYADSVKGRFTISRDNAKNTVYLQMNSLKPEDTAMYYCAARRWACPRVGSWHEFAYWGQGTQVTVSS"
11,binds,"AS75376 (VHH, camel sdAb; crude E. coli supernatant) VHH: QVQLKESGGGSVQAGGSLRLSCAASGYTYSSHSMGWFRQAPGKEREGVAVIYTGDGSTYYADSVKGRFTISQDNAKNTVYLQMNSLKPEDTAMYYCAADPNPDYMLPFRPSRRSWWGQGTQVTVSS"

# Target: T1, extracellular domain of human DLL3 …
# Test: SPR (Biacore), HCAb captured by anti-human Fc, human DLL3 as analyte, 1:1 fit
# Text: The camel and humanized sdAb sequences were fused with human IgG1 hinge and Fc, resulting the chimeric and humanized HCAb sequences. The DNAs encoding these HCAbs were synthesized and inserted into pTT5 vector. HCAb expression plasmids were used to transfect HEK293 cells. Crude HCAb proteins secreted to the medium were subjected to SPR affinity measurement as follows: briefly, capturing antibody anti-human Fc pAb (GE healthcare) was immobilized on a Biacore™ CM5 chip to approximately 6,000 RU using EDC-activated amine coupling chemistry. HCAb of interest was captured for 300 seconds onto the sensorchip surface. Human DLL3 (AdipoGen, AG-40B-0151) was flowed over the sensorchip surface at a series of increasing concentrations. Association and dissociation phases were monitored. Captured antibody and antigen were removed between cycles using 10 mM Glycine-HCl, pH 2.0 buffer in order to ensure a fresh binding surface for the antigen. The resulting sensorgrams were fit globally using a 1:1 binding model in order to calculate on- and off-rates (ka and kd, respectively), as well as affinities (KD).
Kd [nM],koff [s⁻¹],kon [M⁻¹ s⁻¹],Binder
16,0.0064,390000,"AS63997 HCAb (Fc fusion, not shown: a dimerising Fc or GST, camel sdAb fused with human IgG1 hinge and Fc (chimeric HCAb), crude HEK293 medium) QVRLVESGGGSVQAGGSLRLSCAGSFSGYGVSTMAWFRQAPGKEREGVAAITVGSGNTYYADSVKGRFTISRDNAKRTVFLQMNSLKPEDTAMYYCAVGYLSGGSWDVPGRYNYWGQGTQVTVSS"
45,0.0015,32000,"AS64380VH7 HCAb (Fc fusion, not shown: a dimerising Fc or GST, humanized sdAb fused with human IgG1 hinge and Fc (humanized HCAb), crude HEK293 medium) EVQLVESGGGLVQPGGSLRLSCAASGNTYSSNYMGWFRQAPGKGREEVAVIYTRGGHTYYVDSVRGRFTISQDNAKNSVYLQMNSLRAEDTAMYYCAASSRHRLGLNNPRDYDYWGQGTLVTVSS"
17,0.0015,88000,"AS64380VH6 HCAb (Fc fusion, not shown: a dimerising Fc or GST, humanized sdAb fused with human IgG1 hinge and Fc (humanized HCAb), crude HEK293 medium) EVQLVESGGGLVQPGGSLRLSCAASGNTYSSNYMGWFRQAPGKGLEEVAVIYTRGGHTYYVDSVRGRFTISQDNAKNSVYLQMNSLRAEDTAMYYCAASSRHRLGLNNPRDYDYWGQGTLVTVSS"
14,0.0044,310000,"AS64380VH4 HCAb (Fc fusion, not shown: a dimerising Fc or GST, humanized sdAb fused with human IgG1 hinge and Fc (humanized HCAb), crude HEK293 medium) EVQLVESGGGLVQPGGSLRLSCAASGNTYSSNYMGWFRQAPGKGLEEVAVIYTRGGHTYYVDSVRGRFTISRDNAKNSLYLQMNSLRAEDTAVYYCAASSRHRLGLNNPRDYDYWGQGTLVTVSS"
8.4,0.0056,670000,"AS64380 HCAb (Fc fusion, not shown: a dimerising Fc or GST, camel sdAb fused with human IgG1 hinge and Fc (chimeric HCAb), crude HEK293 medium) EVQLVESGGGSVQAGGSLTLSCEASGNTYSSNYMGWFRQAPGKEREEVAVIYTRGGHTYYVDSVRGRFTISQDNAKNTVYLQMNSLKPEDTAMYYCAASSRHRLGLNNPRDYDYWGQGTQVTVSS"
26,0.0015,59000,"AS64380VH5 HCAb (Fc fusion, not shown: a dimerising Fc or GST, humanized sdAb fused with human IgG1 hinge and Fc (humanized HCAb), crude HEK293 medium) EVQLVESGGGLVQPGGSLRLSCAASGNTYSSNYMGWFRQAPGKGLEEVAVIYTRGGHTYYVDSVRGRFTISQDNAKNSLYLQMNSLRAEDTAVYYCAASSRHRLGLNNPRDYDYWGQGTLVTVSS"
3.4,0.00048,140000,"AS64511VH6 HCAb (Fc fusion, not shown: a dimerising Fc or GST, humanized sdAb fused with human IgG1 hinge and Fc (humanized HCAb), crude HEK293 medium) EVQLVESGGGLVQPGGSLRLSCAASRATYSTNYISWFRQAPGKGREAVATITTGDGETAYADSVKGRFTISRDNAKNSVYLQMNSLRAEDTAMYYCAANLRIGGDWFDGRDFRAWGQGTLVTVSS"
2.9,0.00047,160000,"AS64511VH5 HCAb (Fc fusion, not shown: a dimerising Fc or GST, humanized sdAb fused with human IgG1 hinge and Fc (humanized HCAb), crude HEK293 medium) EVQLVESGGGLVQPGGSLRLSCAASRATYSTNYISWFRQAPGKGLEAVATITTGDGETAYADSVKGRFTISRDNAKNSVYLQMNSLRAEDTAMYYCAANLRIGGDWFDGRDFRAWGQGTLVTVSS"
3,0.0004,130000,"AS64511 HCAb (Fc fusion, not shown: a dimerising Fc or GST, camel sdAb fused with human IgG1 hinge and Fc (chimeric HCAb), crude HEK293 medium) QVQLVESGGGSVQAGGSLRLSCAASRATYSTNYISWFRQAPGKEREAVATITTGDGETAYADSVKGRFTISRDNAKNTVYLQMNSLKPEDTAMYYCAANLRIGGDWFDGRDFRAWGQGTQVTVSS"
6,0.00094,160000,"AS64511VH4 HCAb (Fc fusion, not shown: a dimerising Fc or GST, humanized sdAb fused with human IgG1 hinge and Fc (humanized HCAb), crude HEK293 medium) EVQLVESGGGLVQPGGSLRLSCAASRATYSTNYISWFRQAPGKGLEAVATITTGDGETAYADSVKGRFTISRDNAKNSLYLQMNSLRAEDTAVYYCAANLRIGGDWFDGRDFRAWGQGTLVTVSS"
